For assay [1], the target named is mouse c-Met/Fc fusion protein (R&D Systems) (mouse) (UniProt P16056). Description: ELISA, c-Met/Fc coated at 2 ug/ml, goat anti-mouse IgG-HRP, OPD.
The target of assay [2] is human c-Met/Fc fusion protein (R&D Systems) (human) (UniProt P08581). The description is as above.
For assay [3], the target named is T1, human c-Met protein (immobilized on a CM5 chip) (human, UniProt P08581 25-932, limits assumed). In words: SPR (Biacore), human c-Met immobilized on a CM5 chip, antibody in flow. The procedure:
(§1) A surface plasmon resonance (SPR) device (Biacore) was used to measure the binding affinity of the monoclonal antibody AbF46 prepared in Example 1 to human c-Met protein. The human c-Met protein was first immobilized on a CM5 chip, and the monoclonal antibody AbF46 was allowed to flow into a microfluidic chamber to obtain kₐ (on) and kb (off) values as illustrated in FIG. 2. Then, the Kd value was calculated from the kₐ and kb values. […] In addition, the Chi² value, which represents the reliability of the experiment, was 0.822 (in a Biacore analysis method, a Chi² value of 1 or less indicates high reliability of the data).

For assay [4], the target named is T1, human c-Met protein (immobilized on a …). In words: SPR (Biacore), human c-Met immobilized on a CM5 chip, AbF46 flowed over. The procedure:
as §1
Background: Surface plasmon resonance follows binding to a sensor surface in real time, without labels.

T1 sequence (P08581 25-932 limits assumed): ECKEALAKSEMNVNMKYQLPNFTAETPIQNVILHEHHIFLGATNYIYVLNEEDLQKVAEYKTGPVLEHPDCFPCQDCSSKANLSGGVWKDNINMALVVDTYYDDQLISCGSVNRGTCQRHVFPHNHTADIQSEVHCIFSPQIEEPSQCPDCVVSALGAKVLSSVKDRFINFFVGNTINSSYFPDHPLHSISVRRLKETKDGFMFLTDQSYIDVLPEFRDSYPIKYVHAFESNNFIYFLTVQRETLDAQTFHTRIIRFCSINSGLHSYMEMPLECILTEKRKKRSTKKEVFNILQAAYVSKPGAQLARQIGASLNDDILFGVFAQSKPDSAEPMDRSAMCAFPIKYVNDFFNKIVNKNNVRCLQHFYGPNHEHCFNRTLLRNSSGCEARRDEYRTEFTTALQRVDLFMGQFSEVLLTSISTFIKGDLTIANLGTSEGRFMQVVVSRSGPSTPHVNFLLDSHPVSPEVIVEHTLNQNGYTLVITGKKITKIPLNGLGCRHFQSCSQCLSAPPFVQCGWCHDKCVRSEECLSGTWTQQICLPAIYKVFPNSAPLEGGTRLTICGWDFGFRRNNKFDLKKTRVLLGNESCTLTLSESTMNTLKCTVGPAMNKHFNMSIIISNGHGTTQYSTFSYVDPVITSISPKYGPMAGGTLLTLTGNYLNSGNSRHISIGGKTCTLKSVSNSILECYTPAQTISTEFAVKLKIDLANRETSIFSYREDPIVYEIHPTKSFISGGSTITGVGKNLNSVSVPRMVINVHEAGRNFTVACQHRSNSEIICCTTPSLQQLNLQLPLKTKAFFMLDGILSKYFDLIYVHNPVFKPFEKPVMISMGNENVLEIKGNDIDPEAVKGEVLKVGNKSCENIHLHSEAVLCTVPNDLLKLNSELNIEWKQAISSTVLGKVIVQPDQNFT
Chain of mouse c-Met/Fc fusion protein (R&D Systems) (mouse) (P16056 25-931 limits assumed): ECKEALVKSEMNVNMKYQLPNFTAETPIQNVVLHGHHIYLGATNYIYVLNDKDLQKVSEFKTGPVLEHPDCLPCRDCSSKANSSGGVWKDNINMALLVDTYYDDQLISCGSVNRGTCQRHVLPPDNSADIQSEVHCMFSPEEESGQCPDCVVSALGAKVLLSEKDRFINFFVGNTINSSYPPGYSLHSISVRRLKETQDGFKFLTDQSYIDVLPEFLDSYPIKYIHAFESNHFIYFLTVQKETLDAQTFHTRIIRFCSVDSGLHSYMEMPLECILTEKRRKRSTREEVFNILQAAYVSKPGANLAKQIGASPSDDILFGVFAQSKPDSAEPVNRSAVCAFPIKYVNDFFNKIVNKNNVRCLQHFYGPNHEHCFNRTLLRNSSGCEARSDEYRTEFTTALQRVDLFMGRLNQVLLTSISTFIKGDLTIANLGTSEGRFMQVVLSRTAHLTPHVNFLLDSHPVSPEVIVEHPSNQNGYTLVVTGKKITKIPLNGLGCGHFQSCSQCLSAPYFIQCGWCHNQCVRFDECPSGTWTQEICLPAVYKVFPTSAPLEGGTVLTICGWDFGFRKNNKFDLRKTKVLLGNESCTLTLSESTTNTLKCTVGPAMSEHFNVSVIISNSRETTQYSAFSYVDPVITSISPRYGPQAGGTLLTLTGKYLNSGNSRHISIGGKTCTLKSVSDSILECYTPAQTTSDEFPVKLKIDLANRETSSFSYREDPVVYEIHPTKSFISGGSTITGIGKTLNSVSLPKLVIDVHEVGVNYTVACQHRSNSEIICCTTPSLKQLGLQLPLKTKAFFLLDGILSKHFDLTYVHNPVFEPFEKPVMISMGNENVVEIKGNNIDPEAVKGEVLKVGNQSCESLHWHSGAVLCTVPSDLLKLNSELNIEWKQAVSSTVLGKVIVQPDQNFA
Chain of human c-Met/Fc fusion protein (R&D Systems) (human) (P08581 25-932 limits assumed): as the sequence (P08581 25-932 limits assumed) above

Take “5D5 (Genentech), monoclonal antibody against human c-Met”: the values for the absorption at 450 nm in assay [1] and in assay [2] were 0.113 and 0.373, respectively.

B1: monoclonal antibody AbF46 (antibody, IgG1, V domains shown)
VH: EVKLVESGGGLVQPGGSLRLSCATSGFTFTDYYMSWVRQPPGKALEWLGFIRNKANGYTTEYSASVKGRFTISRDNSQSILYLQMDTLRAEDSATYYCARDNWFAYWGQGTLVTVSA
VL: DILMTQSPSSLTVSAGEKVTMSCKSSQSLLASGNQNNYLAWHQQKPGRSPKMLIIWASTRVSGVPDRFIGSGSGTDFTLTINSVQAEDLAVYYCQQSYSAPLTFGAGTKLELKR
notes: also called SAIT-MET-AbF46 (hybridoma cell line); antibody of hybridoma KCLRF-BP-00220
Broadly, the Kd is the equilibrium constant for the complex coming apart. High values mean lower affinity, low ones higher affinity. By koff is commonly meant the rate constant with which the complex falls apart. The term kon denotes a measure of how fast the partners come together. A lower kon goes with slow association. B1 registered an equilibrium dissociation constant (Kd) in assay [3] of 4 nM. In assay [4], this molecule had a koff of 0.00155 s⁻¹ and a kon of 385000 M⁻¹ s⁻¹.

(Values after patent publication US20110104176A1 (SAMSUNG ELECTRONICS, published 2011).)
